Measurements published in paper PMC8221081.

Target: Gankyrin (Gank) (UniProt Q9Z2X2)
Assay: Gank IP, C/EBPα Western blot
Conditions: reference: wild-type mice, DEN-treated; sites S193

binding against the reference: lost
Substance: C/EBPα (from UniProt P53566) C/EBPα-S193A mice, DEN-treated
